{
  "source": "patent US20190375786A1",
  "about": "“STABLE PEPTIDES AND METHODS OF USE THEREOF” (Fred Hutchinson Cancer Research Center, priority 2016, published 2019)",
  "key": {"[1]": {"test": "Resistance to reduction by reduced glutathione (GSH), HPLC", "assay_type": "physicochemical", "conditions": "10 mM reduced glutathione (GSH); HPLC vs non-reduced peptide", "procedure,_shortened": "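Peptide stability under reducing conditions was tested in 10 mM DTT and in 10 mM GSH, with analysis by HPLC.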"}, "trypsin": {"target": "trypsin (Sus scrofa, UniProt P00761)", "sequence (P00761 9-231)": "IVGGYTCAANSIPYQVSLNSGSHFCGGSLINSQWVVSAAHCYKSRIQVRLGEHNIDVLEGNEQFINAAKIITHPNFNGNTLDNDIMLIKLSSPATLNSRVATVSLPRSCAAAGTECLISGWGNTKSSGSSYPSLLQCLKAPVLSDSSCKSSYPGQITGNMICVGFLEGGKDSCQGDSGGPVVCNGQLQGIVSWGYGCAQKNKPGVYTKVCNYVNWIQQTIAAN", "test": "SDPR surface display protease resistance, anti-6xHis staining, trypsin", "assay_type": "cell-based", "conditions": "HEK-293 cells, up to 40 μg/ml trypsin for 20 minutes", "experimental": "Soluble peptides were exposed to 500 U/mL porcine trypsin and analyzed by HPLC. Protease resistance was also assessed by using SDPR-displaying peptides. The SDPR vector is similar to the a surface display GFP FasL(SDGF) vector, but contains a C-terminal 6×His tag (SEQ ID NO: 180) and all basic or aromatic amino acid residues on the stalk removed. Protease resistance is then tested by incubation of cells displaying peptides with trypsin or chymotrypsin, followed by incubation in 10 mM DTT, and staining with an anti-6×His fluorophore-labeled antibody (“6×His” disclosed as SEQ ID NO: 180). If peptides are uncleaved, they retain the His tag and are stained with by the antibody. A control protease-sensitive knottin peptide (SK) was used as a positive control. Cells displaying peptides were treated with up to 40 μg/ml trypsin or chymotrypsin.\nTo determine the impact of protease treatment or reducing condition on the function of the peptides, i.e., binding activity, various binding or functional assays can be performed. […] After treatment with the protease and reducing agent, any linearized peptide product or degradation product resulting from reduction and/or proteolysis by treatment with a protease can be detected or analyzed by staining against the 6×His tag (SEQ ID NO: 180). […]"}, "[2]": {"test": "Circular dichroism thermal stability, heating 20° C. to 95° C.", "assay_type": "physicochemical", "conditions": "10 mM phosphate buffer pH 7.4; heated 20° C. to 95° C.", "experimental": "(§1) Protein secondary structures were assessed using Circular Dichrosim (CD). CD spectra were measured with a Jasco J-720W spectropolarimeter using a 1.0 mm path length cell. Protein samples in 10 mM phosphate buffer (pH=7.4) were at 25-30 μM protein concentration. Samples were analyzed at wavelength ranges of […]. Data were expressed in terms of relative ellipticity [θ]; (mdeg). To determine thermal stability of proteins, samples were subjected to incremental increase in temperature at a ramp of 2° C./min from 20° C. to 95° C. Stability and protein unfolding were monitored at 220 and 215 for α-helix and β-sheet secondary structures, respectively. Data are expressed in terms of relative ellipticity [θ], reported in mdeg. For SEQ ID NO: 43 and its point mutant variants, no changes to the α-helix-dominated structure were observed upon heating up to 95° C. […] Additionally, protein melting temperature (Tm) determination was performed by monitoring protein unfolding using SYPRO Orange dye (Molecular Probes). In brief, 0.1 mg/mL protein sample in 20 μL total volume PBS buffer were mixed with 24, of 10× SYPRO Orange dye. Dye intercalation into the hydrophobic protein core following protein unfolding was assayed using the C1000 Touch Thermal Cycler with CFX96 Deep Well Real-Time System (BioRad). Samples were heated from 20° C. to 95° C. with stepwise increments of 0.5° C. per minute and a 5 sec hold step for every point, followed by fluorescence reading. Tm were calculated by analyzing the derivatives of Relative florescence Units (RFU). FIG. 17D illustrates this SYPRO Orange melting assay of Peptides."}, "[3]": {"test": "SYPRO Orange melting assay", "assay_type": "physicochemical", "conditions": "heating from 20° C. to 95° C.", "experimental": "as §1"}},
  "data": [
    {"sequence": "GSPDEYIERAKECCKKQDIQCCLRIFDESKDPNVMLICLFCW [SEQ ID NO: 43]", "values": [
      {"measurement": "resistance to GSH reducing conditions", "setting": "[1]", "value": "resistant"},
      {"measurement": "resistance of surface-displayed peptide to cleavage by trypsin", "setting": "trypsin", "value": "partially resistant"},
      {"measurement": "CD secondary structure signature before (Pre) and after (Post) incubation at 95° C.", "setting": "[2]", "value": "identical"},
      {"measurement": "melting temperature (Tm)", "setting": "[3]", "value": "no melting temperature could be determined"}
    ]}
  ]
}
